Data on one molecule can be found in publication PMC2713992 (Nature immunology, 2009).

The assay concerns the target complement component 3b (C3b) (human, UniProt P01024 23-667; P01024 749-1663). In words: SPR. Background: SPR reads the build-up and loss of mass on a sensor chip optically.

complement component 3b (C3b), sequence (P01024 23-667, chain 1 of 2): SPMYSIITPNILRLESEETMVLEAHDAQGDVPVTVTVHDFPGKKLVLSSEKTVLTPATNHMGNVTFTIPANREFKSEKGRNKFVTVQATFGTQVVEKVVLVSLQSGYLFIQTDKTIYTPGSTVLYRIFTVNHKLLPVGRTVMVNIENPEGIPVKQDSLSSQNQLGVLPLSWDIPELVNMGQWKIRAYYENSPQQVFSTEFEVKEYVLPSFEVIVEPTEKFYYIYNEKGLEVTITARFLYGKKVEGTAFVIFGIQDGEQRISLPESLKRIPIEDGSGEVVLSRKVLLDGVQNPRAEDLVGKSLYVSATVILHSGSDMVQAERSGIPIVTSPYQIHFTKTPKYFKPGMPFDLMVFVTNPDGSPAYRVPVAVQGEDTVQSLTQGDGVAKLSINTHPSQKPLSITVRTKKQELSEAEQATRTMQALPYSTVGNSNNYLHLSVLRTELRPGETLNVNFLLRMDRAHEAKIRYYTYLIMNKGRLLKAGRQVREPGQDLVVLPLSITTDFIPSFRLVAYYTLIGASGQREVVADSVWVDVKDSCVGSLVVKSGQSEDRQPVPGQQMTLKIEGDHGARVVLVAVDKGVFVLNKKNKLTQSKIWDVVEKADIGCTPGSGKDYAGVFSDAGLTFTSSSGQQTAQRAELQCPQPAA
complement component 3b (C3b), sequence (P01024 749-1663, chain 2 of 2): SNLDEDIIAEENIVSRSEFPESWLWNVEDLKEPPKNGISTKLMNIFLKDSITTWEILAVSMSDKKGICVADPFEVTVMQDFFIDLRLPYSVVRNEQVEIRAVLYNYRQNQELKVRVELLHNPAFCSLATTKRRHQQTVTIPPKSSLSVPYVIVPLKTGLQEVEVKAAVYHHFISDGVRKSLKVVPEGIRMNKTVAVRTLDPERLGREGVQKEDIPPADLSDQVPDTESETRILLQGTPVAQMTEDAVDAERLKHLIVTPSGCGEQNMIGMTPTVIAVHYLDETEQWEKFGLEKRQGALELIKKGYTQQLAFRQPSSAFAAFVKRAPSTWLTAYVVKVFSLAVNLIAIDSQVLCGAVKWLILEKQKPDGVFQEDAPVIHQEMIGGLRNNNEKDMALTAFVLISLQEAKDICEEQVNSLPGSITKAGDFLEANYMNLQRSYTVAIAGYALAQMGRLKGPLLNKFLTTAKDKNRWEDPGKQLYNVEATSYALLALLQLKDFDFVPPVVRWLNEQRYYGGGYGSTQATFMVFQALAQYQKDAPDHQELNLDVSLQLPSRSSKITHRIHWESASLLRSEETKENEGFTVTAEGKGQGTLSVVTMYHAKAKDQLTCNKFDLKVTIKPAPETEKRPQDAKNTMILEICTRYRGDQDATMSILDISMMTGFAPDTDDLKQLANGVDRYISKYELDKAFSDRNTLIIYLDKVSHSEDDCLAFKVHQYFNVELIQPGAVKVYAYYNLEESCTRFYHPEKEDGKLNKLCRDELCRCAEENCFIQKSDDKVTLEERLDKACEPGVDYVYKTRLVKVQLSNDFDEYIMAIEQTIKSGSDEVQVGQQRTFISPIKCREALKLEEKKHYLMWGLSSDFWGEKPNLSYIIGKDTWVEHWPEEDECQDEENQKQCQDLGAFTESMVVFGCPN

B1: FH(1–4), recombinant N-terminal four CCP domains (CCP1-4, residues 1–246) of human factor H (domain or fragment, UniProt P08603 19-264, looked up)
chain: EDCNELPPRRNTEILTGSWSDQTYPEGTQAIYKCRPGYRSLGNVIMVCRKGEWVALNPLRKCQKRPCGHPGDTPFGTFTLTGGNVFEYGVKAVYTCNEGYQLLGEINYRECDTDGWTNDIPICEVVKCLPVTAPENGKIVSSAMEPDREYHFGQAVRFVCNSGYKIEGDEEMHCSDDGFWSKEKPKCVEISCKSPDVINGSPISQKIIYKENERFQYKCNMGYEYSERGDAVCTESGWRPLPSCEE
A word on the Kd: it is the equilibrium constant for the complex coming apart. Low readings indicate higher affinity, high ones lower affinity. What is called stoichiometry N is the number of molecules, sites or subunits per partner or assembly. Take B1: binding was put at a Kd of 11 ± 2 µM and the “stoichiometry N” value worked out at 1.
